Measurements from the nanobody polyreactivity screen of Harvey et al. (2022).

Assay: yeast display, Sf9 membrane polyspecificity reagent, FACS + sequencing; frameworks hold sequencing errors
Method in brief: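 Nanobodies came from a synthetic yeast display library in Saccharomyces cerevisiae BJ5465, induced with galactose for 36–48 hours and stained for 1 hour at 4 °C with 10% biotinylated, detergent-solubilized Sf9 membrane reagent. Cells were enriched on streptavidin microbeads and then FACS-sorted, with low and high (top ~1%) gates set on anti-HA fluorescence for expression and streptavidin fluorescence for reagent binding. Each polyreactivity label reflects the gate a clone came from. Genes were amplified by colony PCR, sequenced by MiSeq 2 × 250 and filtered by CDR length.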

Sequence	polyreactivity (PSR sort gate)
QVQLVESGGGLVQAGASLRLSCAASASTFKGNAMGWYRQAPGKERELVAAINRSGTSTYYADSVKGRFTISRDNAKNSVYLQMNSLKPEDTAVYYCAKNYFGHRFDYWGQGTQVTVSS	high polyreactivity
QVQLQESGGGLVQAGGSLRLRCAASGSISRLDYMGWYRQASGKELELVAAIDNGSTTYYADSVKGRLTISRDNEKYTVYLKMNSLKPEDTAVYFCAAVRGRGGTHAYWGQGTQVTVSG	low polyreactivity
QVQLVESGGCLVQAGGSLRLSCASTGSIIYWYTMGWYRQAHGKDRELVAASSSIDGNTYYADSVKGRFTISRDNAKNTVYLQMNSLKPEDTAVYYCPAAYYNTDYYYWGQGTQVTVSS	low polyreactivity
QVQLVESGGGLVQAGGSLRLRCAASGINFGYYAMGWYRQAPGKERELVAAITSGASTDYADSVKGRFTISRDNAKNTVYLQMNSLKPEDTAVYYCNADTSASTYTFPFDYCGQGTQVTVSS	low polyreactivity
QVQLVESGGGLVQAGGSLRLSCAASGSIFGRNAMGWYRQAPGKERELVAAISFIGGSTYYADSVKGRFTISRDNAKNTVYLQMNSLKPEDTAVYYCATSVFYYGSLYGYWGQGTQVTVSS	high polyreactivity
QVQLVESGGGLVKAGGSLRISCAASGRTFGLYAMGWYRQAPGKERELVAAISWGGGRTYYADSVKGRFTISRDNAKNTVYLQMNSLNPEETAVYYCNAVYSPRYYVGGYDYWGQGTLVTVSS	high polyreactivity
QVQLVESGGGLVQSGGSLRLSCAASGSIFTPYSMGWYRQAPGKERELVAGISYRGGTTYYADSVKGRFTISRDNAKNTVYLQMNSLKPEDYAVYYCAAAASSPGGWFYYWGQGTQVTVSS	high polyreactivity
QVQLVESGGGLVQAGGSLRLSCAASGSIFAYYAMGWYRQAPGKERELVAAISWSGGRTYYADSVKGRFTISRDNAKNTVYLEMNSLIPEDTAVYYCTAYFYSFYYPFPYESWGQGTQVTVSS	low polyreactivity
QVQLVESGGGLVQAGGSLRLSCAASGSTLQDNAMGWYRQAPGKERELVAAITTGSTTYADSVKGRFTISRDNAKNTVYLQMNSLKPEDTAVYYCNARVDWGWPGYEYDYWGQGTQVTVSS	low polyreactivity
QVQLVESGGGLVHAGGSLRLSCAASGFIFSYNARGWYRQAPGKERELVASISRADSTNYADSVKGRFTISRDNAKNTVYLQMNSLKPEDTAVYYCAAAYWPVVWFYYWGQGTQVTVSS	low polyreactivity
QVQLVESGGGLVQAGGSLRLSCAASGFILAYYAMGWYRQAPGKERELVAAISIGSSTDYADSVKGRFTISRDNAKNTVYLQMNSLKPEDTAVYYCAATYVYWTWGYDYWGQGTQVTVSS	low polyreactivity
QVHLVESGGCLVQAGGSLRLSCAASGYIIGINAMACYRQAPRKESELVPAISRSGGSTYYAESVKGRFTISRDNAKNTVYLQMNSLKPEDTAVYYCASDILRFYSDTYGTEYWGQGTQVTVSS	high polyreactivity
EVQLVESGGGLVQAGGSLRLSCAASGRIFKYYTMGWYRQAPGKERELVAAISRDDSTNYADSVKGRFTISRDNAMNTVYLQMNSLKPEDTAVYYCAKGYHQYAGFYYWGQGTQVTVSS	high polyreactivity
QVHLEESGGGLVQAGRSLRLTCAASGRTFLWYAMGSYRQAPGKETDLVAAIRRSGGGTYYADSVKGRFTISRDNAKNSVYLQMNRLKPEDSGFFYCNSDYRGYQRGVISDGFYYWGLGTQVTVSS	low polyreactivity
QVQLVESGGGLVQAGGSLRLSCAASGRIFRGYAMGWYRQAPGKERELVAAIDTDTGITYYADSVKGRFTISRDNAKNTVYLQMNSLKPEDTAVYYCAAETYYAVSTGYYFDYWGQGTQVTVSS	high polyreactivity
QVQLVESGGGLVQAGGSLRLSCAASGRIFLYYAMGWYRQAPGKERELVAAISRRGASTYYADSVKGRFTITRDNAKNTVYLQMNSLKPEDTAVYYCGSVPGKSGDYWGQGTQVTVSS	high polyreactivity

Sequence	polyreactivity (PSR sort gate)
QVQIVESGGGLVQAGGSLRLSCADSGIIFYYNAMGWYRQAPGKERELVAAIDDRGDSTYYADSVKGRFTISRDNAKNTVYLQMNSMKPEDTAVYYCAARDRYLYFDAMDYWGQGTLVTVSS	low polyreactivity
QVQLVESGGGLVQAGGSLRLSCAASGSIIVGYAMGWYRQAPGKEREMVALISSDCDTYYADSVKGRFTISRDNAKNTVYLQMNSLKAEDTAVYYCNADLYGGGDKSVISGLNGEYEYWGQGTQVTVSS	low polyreactivity
QVQLVESGGGLVQAGGSLRLSCAASGRTFLYYTMGWYRQAPGKERELVAVISIEGGGTYADSVKGRFTISRDNAKNTVYLQMNSLKPEDTAVYYCAVDALSITYGYWGQGTQVNVSS	low polyreactivity
QVQLGESGGGLVQAGGSLRLSCAASGSTFNRYAMGWYRQAPGKERELVAAISFSGGRTYYADSVKGRFTISRDNAKNTVYLQMNSLKPEDSAVYYCTKVVYGYFTRAYTYNYWGQGTQVTVSS	high polyreactivity
QVQLVESGGGLVQAGGSLRLSCAASGFTFYNNAMGWYRPAPGKERELVAVITSNGGRTYYADSVKGRFTISRDNAKNTVYLQMNSVKPEDTAVYYCAKDYKALYLYHYRISGGDVDYWGQGTQVTVSS	low polyreactivity
QVQLEESGGGLVQAGGRLRLRCAASATYRYYGMGWYRQQPGNERELVAAISRSGSRTYYADSVKGRFTISRDNAKNTVYLQMNSLKPEESAFYYCAASSVYYGYDYWGQGTQVTVSS	high polyreactivity
QVQLVESGGGLVQAGGSLRLSCAASGRTIDHNTMGWYRQAPGKERELVAAISWSGGTTYYADSVKGRFTISRDNEKNTVYLQMNSLKPEDTAVYYCAADRSRGSYGYQYDYWGQGTQVSVSS	low polyreactivity
QVQLVESGGGLVQAGGSLRLSCAASGRTFYHYAMGWYRQAPGKERELVAGITGRGRSTYYADSVKGRFTISRDNAKNTVYLQMNSLKPEDTAVYYCAAARLYSGAASDYGYWGQGTQVTVSS	high polyreactivity
QVHLVESGGGLVQAGGSLRLSCAASGITFYVYAMGWYRQAPGKERELVAAINYDSGSTYYADSVKGRFTISRDNAKNTVYLQMISLKPEDTAVYYCATDGVNPFYAYDYWGQGNQVTVSS	low polyreactivity
QVHLVESGGGLVQAGGSLRLSCAASGITIWNNAMGWYRQAPGKERELVATISSNGGRTYYADSVKGRFTISLDTAKNTVYFQMNSLKPEDTAVYYCNAARRAYGYNYWGQGTQVTVSS	low polyreactivity
QVQLVESGGGLVQAGGSHRLSCAASGSTFWRYAMGWYRQAPGKERELVAAITRRGSSTYYADSVKGRFTISRDNAKNTVYLQMNSLKPEDTAVYYCAREPYPYIRTYILGNYWGQGTQVTVSS	high polyreactivity
QVQLVESGGGLVQAGGSLRLSCAASGRTFVYYAMVWYRQAPGKERELVATISRRGGGTYYADSVKGRFTISRDNAKNTVYLQMNSLKPEDTAVYYCNAKWTSHGTYAEDYWGQGTQVTVSS	high polyreactivity
QVQLVESGGGLVQAGGSLRLSCAASGYTFRYYAMGWYRQAPGKERELVAVISSGGSTKYADSVKGRFTISRDNAKNTVYLQMNSLKPEDTAVYYCAARYRSLYNYWGQGTQVTVSS	high polyreactivity
QVQLVESGGGLVQAGGSLRLSCAASGSIFEQYAMGGSRPAPGKERELVAAISKRGTSTYYADSVKGRFTISRDTPKNTVYLNMNSLKPEDTAVYYCAATNRWYYRAAADVYAFGYWGQGTQVTVSS	high polyreactivity
QVQLVESGGGLVQAGGSLRLSCAASGRIFGVYAMGWYRQAPGKERELVAVINGRGSRTYYADSVKGRFTISRDNAKNTVYLQMNSLKPEDTAVYYCAAGYPDSEYDYWGQGTQVTVSS	high polyreactivity
QVQLVESGGGLVQAGGSLRLSCSASGRTFEHNCMGWSRQAHGKERELVASITSVGSTDYADSVKGRFTISRDNAKNTVYLQMNSLKPEDTAVYYCAKTLGSQNYDFDYWGQGTQVTVSS	low polyreactivity
